Data on 1 substance can be found in article PMC3511584.

A word on the stoichiometry N: it is the number of molecules, sites or subunits per partner or assembly.

The target in experiment [1] is circularly permuted RoCBM21 (CP90) (Rhizopus oryzae). Description: AUC; sedimentation velocity, no ligand, protein around 1.0 mg/ml, 40,000 rpm, 25°C, absorbance at 280 nm, SEDFIT.
Experiment [2] has the same target. Description: AUC; data not shown: apoCP90 at pH 2.5, 3, 4, 5, 6, 7, 8, 9 and 10, no ligand.

For the substance “circularly permuted RoCBM21 (CP90) (domain or fragment)”, the stoichiometry N in experiment [1] and in experiment [2] was 2 each time.
